{"source": "patent US7485456", "about": "(YEDA RESEARCH AND DEVELOPMENT, dated 2009)", "binders": {"B1": {"name": "intracellular domain of the p55 TNF receptor (receptor, UniProt P19438 235-455, looked up)", "chain": "RYQRWKSKLYSIVCGKSTPEKEGELEGTTTKPLAPNPSFSPTPGFTPTLGFSPVPSSTFTSSSTYTPGDCPNFAAPRREVAPPYQGADPILATALASDPIPNPLQKWEDSAHKPQSLDTDDPATLYAVVENVPPLRWKEFVRRLGLSDHEIDRLELQNGRCLREAQYSMLATWRRRTPRREATLELLGRVLRDMDLLGCLEDIEEALCGPAALPPAPSLLR", "notes": "domain: intracellular domain; Two-hybrid construct; also called p55-IC"}, "B2": {"name": "MORT1 (other, UniProt Q13158 1-208, looked up)", "chain": "MDPFLVLLHSVSSSLSSSELTELKFLCLGRVGKRKLERVQSGLDLFSMLLEQNDLEPGHTELLRELLASLRRHDLLRRVDDFEAGAAAGAAPGEEDLCAAFNVICDNVGKDWRRLARQLKVSDTKIDSIEDRYPRNLTERVRESLRIWKNTEKENATVAHLVGALRSCQMNLVADLVQEVQQARDLQNRSGAMSPMSWNSDASTSEAS", "notes": "Two-hybrid construct; also called FADD; MORT1/FADD"}, "B3": {"name": "TRAF3 (other, UniProt Q13114 1-568, looked up)", "chain": "MESSKKMDSPGALQTNPPLKLHTDRSAGTPVFVPEQGGYKEKFVKTVEDKYKCEKCHLVLCSPKQTECGHRFCESCMAALLSSSSPKCTACQESIVKDKVFKDNCCKREILALQIYCRNESRGCAEQLMLGHLLVHLKNDCHFEELPCVRPDCKEKVLRKDLRDHVEKACKYREATCSHCKSQVPMIALQKHEDTDCPCVVVSCPHKCSVQTLLRSELSAHLSECVNAPSTCSFKRYGCVFQGTNQQIKAHEASSAVQHVNLLKEWSNSLEKKVSLLQNESVEKNKSIQSLHNQICSFEIEIERQKEMLRNNESKILHLQRVIDSQAEKLKELDKEIRPFRQNWEEADSMKSSVESLQNRVTELESVDKSAGQVARNTGLLESQLSRHDQMLSVHDIRLADMDLRFQVLETASYNGVLIWKIRDYKRRKQEAVMGKTLSLYSQPFYTGYFGYKMCARVYLNGDGMGKGTHLSLFFVIMRGEYDALLPWPFKQKVTLMLMDQGSSRRHLGDAFKPDPNSSSFKKPTGEMNIASGCPVFVAQTVLENGTYIKDDTIFIKVIVDTSDLPDP", "notes": "Two-hybrid construct"}, "B4": {"name": "intracellular domain of the p75 TNF receptor (receptor, UniProt P20333 288-461, looked up)", "chain": "KKKPLCLQREAKVPHLPADKARGTQGPEQQHLLITAPSSSSSSLESSASALDRRAPTRNQPQAPGVEASGAGEARASTGSSDSSPGGHGTQVNVTCIVNVCSSSDHSSQCSSQASSTMGDTDSSPSESPKDEQVPFSKEECAFRSQLETPETLLGSTEEKPLPLGVPDAGMKPS", "notes": "domain: intracellular domain; Two-hybrid construct; also called p75-IC"}, "B5": {"name": "intracellular domain of the CD40 receptor (receptor, UniProt P25942 216-277, looked up)", "chain": "KKVAKKPTNKAPHPKQEPQEINFPDDLPGSNTAAPVQETLHGCQPVTQEDGKESRISVQERQ", "notes": "domain: intracellular domain; Two-hybrid construct"}, "B6": {"name": "intracellular domain of the FAS/APO1 (CD95 receptor) (receptor, UniProt P25445 191-335, looked up)", "chain": "KRKEVQKTCRKHRKENQGSHESPTLNPETVAINLSDVDLSKYITTIAGVMTLSQVKGFVRKNGVNEAKIDEIKNDNVQDTAEQKVQLLRNWHQLHGKKEAYDTLIKDLKKANLCTLAEKIQTIILKDITSDSENSNFRNEIQSLV", "notes": "as for B5"}, "B7": {"name": "TRADD (other, UniProt Q15628 1-312, looked up)", "chain": "MAAGQNGHEEWVGSAYLFVESSLDKVVLSDAYAHPQQKVAVYRALQAALAESGGSPDVLQMLKIHRSDPQLIVQLRFCGRQPCGRFLRAYREGALRAALQRSLAAALAQHSVPLQLELRAGAERLDALLADEERCLSCILAQQPDRLRDEELAELEDALRNLKCGSGARGGDGEVASAPLQPPVPSLSEVKPPPPPPPAQTFLFQGQPVVNRPLSLKDQQTFARSVGLKWRKVGRSLQRGCRALRDPALDSLAYEYEREGLYEQAFQLLRRFVQAEGRRATLQRLVEALEENELTSLAEDLLGLTDPNGGLA", "notes": "Two-hybrid construct"}, "B8": {"name": "RIP (other, UniProt Q13546 1-671, looked up)", "chain": "MQPDMSLNVIKMKSSDFLESAELDSGGFGKVSLCFHRTQGLMIMKTVYKGPNCIEHNEALLEEAKMMNRLRHSRVVKLLGVIIEEGKYSLVMEYMEKGNLMHVLKAEMSTPLSVKGRIILEIIEGMCYLHGKGVIHKDLKPENILVDNDFHIKIADLGLASFKMWSKLNNEEHNELREVDGTAKKNGGTLYYMAPEHLNDVNAKPTEKSDVYSFAVVLWAIFANKEPYENAICEQQLIMCIKSGNRPDVDDITEYCPREIISLMKLCWEANPEARPTFPGIEEKFRPFYLSQLEESVEEDVKSLKKEYSNENAVVKRMQSLQLDCVAVPSSRSNSATEQPGSLHSSQGLGMGPVEESWFAPSLEHPQEENEPSLQSKLQDEANYHLYGSRMDRQTKQQPRQNVAYNREEERRRRVSHDPFAQQRPYENFQNTEGKGTAYSSAASHGNAVHQPSGLTSQPQVLYQNNGLYSSHGFGTRPLDPGTAGPRVWYRPIPSHMPSLHNIPVPETNYLGNTPTMPFSSLPPTDESIKYTIYNSTGIQIGAYNYMEIGGTSSSLLDSTNTNFKEEPAAKYQAIFDNTTSLTDKHLDPIRENLGKHWKNCARKLGFTQSQIDEIDHDYERDGLKEKVYQMLQKWVMREGIKGATVGKLAQALHQCSRIDLLSSLIYVSQN", "notes": "Two-hybrid construct"}, "B9": {"name": "construct of the N-terminal part of the TRAF2 molecule, amino-acids 1 to 221 (two-hybrid bait) (other)", "chain": "MAAASVTPPGSLELLQPGFSKTLLGTKLEAKYLCSACRNVLRRPFQAQCGHRYCSFCLASILSSGPQNCAACVHEGIYEEGISILESSSAFPDNAARREVESLPAVCPSDGCTWKGTLKEYESCHEGRCPLMLTECPACKGLVRLGEKERHLEHECPERSLSCRHCRAPCCGADVKAHHEVCPKFPLTCDGCGKKKIPREKFQDHVKTCGKCRVPCRFHAI", "notes": "Includes the Ring finger and zinc finger motifs; served as bait in two hybrid tests (fusion partner not spelled out for this construct); also called TRAF2 1-221"}, "B10": {"name": "construct of the C-terminal part of the TRAF2 molecule, amino acids 222 to 501 (two-hybrid bait) (other)", "chain": "GCLETVEGEKQQEHEVQWLREHLAMLLSSVLEAKPLLGDQSHAGSELLQRCESLEKKTATFENIVCVLNREVERVAMTAEACSRQHRLDQDKIEALSSKVQQLERSIGLKDLAMADLEQKVLEMEASTYDGVFIWKISDFARKRQEAVAGRIPAIFSPAFYTSRYGYKMCLRIYLNGDGTGRGTHLSLFFVVMKGPNDALLRWPFNQKVTLMLLDQNNREHVIDAFRPDVTSSSFQRPVNDMNIASGCPLFCPVSKMEAKNSYVRDDAIFIKAIVDLTGL", "notes": "Covers the TRAF-domain and additional 42 amino acids; served as bait in two hybrid tests (fusion partner not spelled out for this construct); also called TRAF2 222-501; C-terminal construct comprising the TRAF domain"}, "B11": {"name": "TRAF2 cDNA clones picked from the human B-cell library (two-hybrid prey, GAL4 activation domain fusion) (other, not shown: large carriers)", "chain": "MAAASVTPPGSLELLQPGFSKTLLGTKLEAKYLCSACRNVLRRPFQAQCGHRYCSFCLASILSSGPQNCAACVHEGIYEEGISILESSSAFPDNAARREVESLPAVCPSDGCTWKGTLKEYESCHEGRCPLMLTECPACKGLVRLGEKERHLEHECPERSLSCRHCRAPCCGADVKAHHEVCPKFPLTCDGCGKKKIPREKFQDHVKTCGKCRVPCRFHAIGCLETVEGEKQQEHEVQWLREHLAMLLSSVLEAKPLLGDQSHAGSELLQRCESLEKKTATFENIVCVLNREVERVAMTAEACSRQHRLDQDKIEALSSKVQQLERSIGLKDLAMADLEQKVLEMEASTYDGVFIWKISDFARKRQEAVAGRIPAIFSPAFYTSRYGYKMCLRIYLNGDGTGRGTHLSLFFVVMKGPNDALLRWPFNQKVTLMLLDQNNREHVIDAFRPDVTSSSFQRPVNDMNIASGCPLFCPVSKMEAKNSYVRDDAIFIKAIVDLTGL"}, "B12": {"name": "protein encoded by new clone number 10, partial NIK (NIK 624-947) (two-hybrid prey, GAL4 activation domain fusion) (enzyme, not shown: large carriers)", "chain": "PLTAQAIQEGLRKEPIHRVSAAELGGKVNRALQQVGGLKSPWRGEYKEPRHPPPNQANYHQTLHAQPRELSPRAPGPRPAEETTGRAPKLQPPLPPEPPEPNKSPPLTLSKEESGMWEPLPLSSLEPAPARNPSSPERKATVPEQELQQLEIELFLNSLSQPFSLEEQEQILSCLSIDSLSLSDDSEKNPSKASQSSRDTLSSGVHSWSSQAEARSSSWNMVLARGRPTDTPSYFNGVKVQIQSLNGEHLHIREFHRVKVGDIATGISSQIPAAAFSLVTKDGQPVRYDMEVPDSGIDLQCTLAPDGSFAWSWRVKHGQLENRP", "notes": "also called clone 10; NMPI"}, "B13": {"name": "Lymphotoxin beta receptor cDNA clones picked from the human B-cell library (two-hybrid prey, GAL4 activation domain fusion) (receptor, UniProt P36941 249-435, looked up, not shown: large carriers)", "chain": "KSHPSLCRKLGSLLKRRPQGEGPNPVAGSWEPPKAHPYFPDLVQPLLPISGDVSPVSTGLPAAPVLEAGVPQQQSPLDLTREPQLEPGEQSQVAHGTNGIHVTGGSMTITGNIYIYNGPVLGGPPGPGDLPATPEPPYPIPEEGDPGPPGLSTPHQEDGKAWHLAETEHCGATPSNRGPRNQFITHD"}}}
{"biological_target": "full-length NIK (NF-kB inducing kinase) (human, UniProt Q99558 1-947)", "experiment": "yeast two-hybrid (results not shown)"}
{"binder": "B1", "binding result": "no binding"}
{"binder": "B2", "binding result": "no binding"}
{"binder": "B3", "binding result": "no binding"}
{"binder": "B4", "binding result": "no binding"}
{"binder": "B5", "binding result": "no binding"}
{"binder": "B6", "binding result": "no binding"}
{"binder": "B7", "binding result": "no binding"}
{"binder": "B8", "binding result": "no binding"}
{"biological_target": "B12", "experiment": "yeast two-hybrid, TRAF2 1-221 as bait", "excerpt": "(§1) In order to narrow down the region on TRAF2 molecule which interact with clones 9, 10 and 15, two additional constructs were made. One construct comprised of the N-terminal part of the TRAF2 molecule, amino-acids 1 to 221, that included the Ring finger and the zinc finger motifs. The second construct included only the C-terminal part of the molecule, amino acids 222 to 501, covering the \"TRAF-domain\" and additional 42 amino acids. These two constructs were served as baits in two hybrid tests."}
{"binder": "B9", "binding result": "no binding"}
{"biological_target": "B12", "experiment": "yeast two-hybrid, TRAF2 222-501 as bait", "excerpt": "as §1"}
{"binder": "B10", "binding result": "binds"}
{"biological_target": "B12", "experiment": "yeast two-hybrid specificity test with irrelevant baits"}
{"binder": "B1", "binding result": "no binding"}
{"binder": "B2", "binding result": "no binding"}
{"binder": "B4", "binding result": "no binding"}
{"biological_target": "T1, human TRAF2 in pGBT9 vector in conjunction with GAL4 DNA binding domain (two-hybrid bait) (human, UniProt P04386 1-147 (Saccharomyces cerevisiae entry))", "T1 construct": "Cloned by PCR from the first methionine to the stop codon; a short linker from the BamHI primer between GAL4 domain and TRAF2 is not spelled out; also called hTRAF2; full length TRAF2 molecule", "experiment": "yeast two-hybrid with TRAF2 bait, lacZ (beta-galactosidase) colour development time", "method": "Positive clones picked up in the two hybrid screen were subjected to lacZ color development test in SFY526 yeast cells, following Clontech Laboratories' manual (for details see above mentioned publications and patent applications). In brief, transformants were allowed to grow at 30° C. for 2-4 days until reaching about 2 mm in diameter, then were transferred onto Whatman filters. The filters went through a freeze/thaw treatment in order to permeabilize the cells, then soaked in a buffer (16.1 mg/ml Na_2HPO_4.7H_2O; 5.5 mg/ml NaH_2PO_4.H_2O; 0.75 mg/ml KCl; 0.75 mg/ml MgSO_4.7H_2O, pH=7) containing 0.33 mg/ml X-gal and 0.35 mM β-mercaptoethanol. Colonies were monitored for development of blue color which is an indication for induction of β-galactosidase.\nThe screen yielded approximately 2000 clones which were able to grow on Trp-, Leu-, His-3AT plates. DNA prepared from 165 randomly selected positive clones served for transient co-transfection of SFY526 yeast strain together with TRAF2 cloned into pGBT9 vector. Assay for β-galactosidase activity was performed on the transformed SFY526 yeast colonies as described in Materials and Methods (v). The blue color that developed was an indication for yeast colonies that contain cDNA encoding a protein or polypeptide that binds to TRAF2.", "units": {"Color test": "min"}}
{"binder": "B11", "Color test": 10}
{"binder": "B12", "Color test": 15}
{"binder": "B13", "Color test": 10}
